{
  "source": "patent US20250276077A1",
  "about": "“EPHA2 ANTIBODIES” (Immunome, Inc., priority 2022, published 2025)",
  "molecules": {"B1": {"name": "AB-009807: sibling of AB-008873; VH SEQ ID NO: 70, VL SEQ ID NO: 81 (antibody, V domains shown)", "VH": "QVQLQQWGAGLLKPSETLSLTCAVYGGSFNDYYWSWIRQPPGKGLEWIGEVNHSGSTSYNPSLKSRVTISVDTSKNQFSLKLSSVTAADTAVYYCAKPFRPHCTNGVCYSGDAFDIWGQGTMVTVSS", "VL": "SYVLTQPPSVSVAPGQTARITCGGNNIGSKNVHWYQQKPGQAPALVVYDDSDRPSGIPEQFSGSNSGNTATLTISRVEAGDEADYYCQVWDSSSDHLVFGGGTKLTVL"}, "B2": {"name": "AB-010685: VH SEQ ID NO: 638, VL SEQ ID NO: 703; H107TI; L29SY; L92SH relative to AB-010361 (antibody, V domains shown)", "VH": "QVQLQQWGAGLLKPSETLSLTCAVYGGSFSGYYWSWIRQPPGKGLEWIGEINHRGSINYNNYNPSLKSRVTISVDTSKNQFSLKLSSVTAADTAVYYCAKPLRPHCINGVCYSGDAFDIWGQGTMVTVAS", "VL": "B1 VL with S29Y, A44V, S92H, L97V"}, "B3": {"name": "AB-010671: VH SEQ ID NO: 624, VL SEQ ID NO: 689; H107TI; L29SY; L92SH relative to AB-010357 (antibody, V domains shown)", "VH": "B2 VH with G31D", "VL": "B1 VL with S29Y, A44V, S92H, L97V"}, "B4": {"name": "EphrinA1-Fc: natural ligand EphrinA1 fused to Fc (Acro, EF1-H5251) (protein)", "chain": "DRHTVFWNSSNPKFRNEDYTIHVQLNDYVDIICPHYEDHSVADAAMEQYILYLVEHEEYQLCQPQSKDQVRWQCNRPSAKHGPEKLSEKFQRFTPFTLGKEFKEGHSYYYISKPIHQHEDRCLRLKVTVSGKITHSPQAHDNPQEKRLAADDPEVRVLHSIGHS", "modifications": "left off: a dimerising Fc or GST"}, "B5": {"name": "Ephrin-A1 (protein)", "chain": "B4 chain", "modifications": "left off: a dimerising Fc or GST"}},
  "key": {"A549 cells [1]": {"tested_on": "A549 cells", "test": "ADCC (KILR target cells, NK92 CD16 chimera effector cells)", "assay_type": "cell-based, human", "settings": "for ADCC activity on A549 cells (in words): comparisons are to AB-008873 or parent; for EC50 / ADCC - dAct rel. parent, Trial 1 / ADCC - dAct rel. parent, Trial 2: A549 tumor cells; for ADCC - dAct rel. parent, Trial 1: Trial 1, relative to parent antibody; for ADCC - dAct rel. parent, Trial 2: Trial 2, relative to parent antibody", "description": "(§1) To detect Antibody-dependent cellular cytotoxicity (ADCC), KILR™-transfected target cells were opsonized with different concentrations of the antibody at room temperature for 20 minutes. Following, NK92 cells carrying a mouse extracellular-human intracellular CD16 chimera were added at a 5:1 ratio of effector to target cells. After a 4 h co-culture at 37° C. and 5% CO2, pre-mixed KILR™ detection reagent was added to each well at equal volume and allowed to incubate for 30 min at room temperature in the dark before reading luminescence on a pate reader. Cytotoxicity was calculated after background (spontaneous release) subtraction and expressed as percent of a maximum lysis control."}, "A549 cells [2]": {"tested_on": "A549 cells", "test": "Flow screen (in vitro) surface binding", "parameters": "species or system human", "settings": "flow cytometry; comparisons are to AB-008873", "description": "Surface binding of the antibodies to in vitro grown cell lines was assessed by flow cytometry. Tumor cells were detached from their culture plate using Versene and counted. Cells were staining in BSA-containing buffer with primary antibody for 30 minutes at 4° C. with shaking. Following, cells were washed and stained with secondary PE-labeled antibody for 30 minutes at 4° C. with shaking. Before analysis on an Intellicyt iQue3 scanner, cells were counterstained with DAPI. MedFI values from live, single cells was expressed as fold over isotype control."}, "A549 cells [3]": {"tested_on": "A549 cells", "test": "ADCP with RAW264.7 mouse macrophage effector cells", "assay_type": "cell-based, human", "description": "For antibody-dependent cellular phagocytosis (ADCP), the cell membranes of target cells were labeled with green fluorescent membrane dye preceding opsonization with different concentrations of antibody at room temperature for 30 minutes. RAW264.7 mouse macrophage (effector) cells were then added at a 1:1 ratio with the target cells and co-cultured at 37° C. and 5% CO2 for 2 hours. After incubation, the cell mixture was dissociated with 2 mM ethylenediaminetetraacetic acid (EDTA, pH 7.4). The cell suspension was then washed several times in an isotonic salt solution and probed with a commercially available anti-CD11b antibody, conjugated with Allophycocyanin (APC). After a 30-minute incubation at 4° C. with this antibody, the cell suspension was washed again before being analyzed by flow cytometry."}, "PC3-KILR cells": {"tested_on": "PC3-KILR cells", "test": "ADCC (KILR target cells, NK92 CD16 chimera effector cells)", "assay_type": "cell-based, human", "description": "as §1"}, "PC3 tumors": {"tested_on": "PC3 tumors", "test": "In vivo PC3 model in NPG mice, ZLA-conjugated EphA2 antibodies", "parameters": "species or system mouse", "settings": "ZLA conjugates in both IgG1 and IgG4 formats; 3 and 6 mg/kg; ~150 mm^3 and ~400 mm^3 PC3 tumors", "description": "This experiment assessed the activity of ZLA-Conjugated EphA2 antibodies AB-010671-ZLA and AB-010699-ZLA in vivo. 2×10^6 PC3 cells were inoculated in 0.2 mL of 1:1 DPBS with Matrigel subcutaneously into each of the male NPG mice. Tumors were allowed to establish and then randomized at an average size of 150 mm^3 with 10 mice per treatment cohort. Treatment started at the day of randomization (Day 0) with weekly intravenous injections of the conjugates at the indicated doses. Body weight as well as tumor sizes were monitored twice weekly. Study was ended at day 35 after 5 doses. At endpoint, mice were euthanized, and tumors excised and weighted.\nThe assay was repeated with AB-010699 and AB-010671 in both IgG1 and IgG4 formats at 1, 3, and 6 mg/kg, AB-010016, and vehicle and isotype controls in mice carrying PC3 tumor cells measuring ˜150 mm^3 or ˜400 mm^3. […] FIG. 60B and FIG. 61B show the body weight of the mice over the course of the studies."}, "[4]": {"tested_on": "SKOV3, MDAMB231, and PC3 tumor cells", "experimental": "This experiment tested the cytotoxicity of antibody-drug conjugates (“conjugates”) each comprising an EphA2 antibody directly conjugated via a lysine to a ZymeLink™ Auristatin (ZLA) payload having structure (1) as disclosed above on SKOV3, MDAMB231, and PC3 tumor cells. […] The average drug to antibody ratio (DAR) for each molecule ranges from 2.9 and 3.6 as determined by Mass Spectrometry. […] 2,500 cells were added to each well of a 96 well plate and incubated with different concentrations of directly conjugated primary antibody for 15 min at room temperature. Cells were then incubated for 72 h at 37° C. and 5% CO2. At the end of the incubation period, 100 μl CellTiter-Glo® was added to each well and allowed to incubate for 5-10 min at room temperature before reading luminescence in a BMG ClarioSTAR plate reader. Data were then normalized to a maximum lysis control and plotted using graph pad prism software."}, "[5]": {"target": "T1, extracellular domain of human EphA2 (25-534) (Homo sapiens, UniProt P29317)", "T1 construct": "extracellular domain of human EphA2 (25-534) with a C-terminal HIS tag; purchased R&D Systems 3035-A2", "T1 sequence (P29317 25-534)": "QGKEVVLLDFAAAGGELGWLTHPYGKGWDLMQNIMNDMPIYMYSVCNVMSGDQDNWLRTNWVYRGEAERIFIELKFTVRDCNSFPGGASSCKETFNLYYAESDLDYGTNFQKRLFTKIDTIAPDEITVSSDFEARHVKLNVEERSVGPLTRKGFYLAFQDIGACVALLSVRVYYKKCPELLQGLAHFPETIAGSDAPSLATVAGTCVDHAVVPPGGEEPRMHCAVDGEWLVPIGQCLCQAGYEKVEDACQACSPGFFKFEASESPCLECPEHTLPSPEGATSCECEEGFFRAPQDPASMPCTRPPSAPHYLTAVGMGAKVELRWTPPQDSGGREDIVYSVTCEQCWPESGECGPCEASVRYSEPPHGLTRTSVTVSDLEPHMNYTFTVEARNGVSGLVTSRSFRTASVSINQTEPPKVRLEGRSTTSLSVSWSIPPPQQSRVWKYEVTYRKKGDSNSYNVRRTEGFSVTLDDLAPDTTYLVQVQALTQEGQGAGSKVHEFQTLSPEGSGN", "test": "Epitope binning by bio-layer interferometry (Octet, in-tandem)", "assay_type": "binding", "description": "Epitope binning was performed using an Octet Red 96E instrument (Sartorius) using the in-tandem format. In this format, antigen is captured on a biosensor tip, a first antibody (or other binding partner) is bound to saturation, and subsequently the ability of a second antibody (or binding partner) known to recognize the antigen is assessed. If substantial binding by the second species is no longer observed, it is supportive that simultaneous binding is sterically hindered (i.e., the second species is “blocked” by pre-saturation of the 1st) and that the two may bind overlapping epitopes. If, however, substantial binding of the second species is observed, despite saturation of the first, it is supportive that the two bind non-overlapping epitopes. Groups of antibodies that block one another can be considered to populate the same epitope bin.\nThe fourth antibody Fv region (AB-008873) was discovered via Atreca's Immune Repertoire Capture (IRC™). Antibodies were produced with mouse IgG2a constant regions. The natural ligand tested was EphrinA1 fused to Fc (Acro, EF1-H5251). Antigen immobilized on the biosensor was the extracellular domain of human EphA2 (25-534) with a C-terminal HIS tag (R&D Systems, 3035-A2) and captured using Ni-NTA tips (Sartorius, 18-5102). Protein solutions were made in 1× Kinetics buffer (Satorius, 18-1092) supplemented with 2.5 mM Imidazole to reduce non-specific binding. Each pairwise interaction was assessed in both orders of addition, and controls for binding in the absence of antigen or with antigen but without a first binding species included. Binning indicated the five molecules populated only two Bins. The first bin contains molecules AB-008873 and AB-010018 and was interpreted to represent epitopes on the membrane proximal fibronectin domain of EphA2 based on the reported epitope location of DS-8895a (Hasegawa, J. et al., Novel anti-EPHA2 antibody, DS-8895a for cancer treatment. Cancer Biology and Therapy, 17(11), 1158-1167 (2016)). The second bin contains molecules AB-010017. AB-010016, and EphrinA1-Fc and was interpreted to represent epitopes on the ligand binding domain (Peng, L. et al., Structural and functional characterization of an agonistic anti-human EphA2 monoclonal antibody. Journal of Molecular Biology, 413(2), 390-405 (2011); Geddie, M. L. et al., Improving the developability of an anti-EphA2 single-chain variable fragment for nanoparticle targeting. MAbs, 9(1), 58-67 (2017)). FIG. 5, Tables 41-42. Referring to FIG. 5, the FN2 location in the first bin is inferred from domain deletion data reported in Hasegawa et al., 2016, FIG. 1, noting that the reported MMP cleavage sites are (385/395/432/435)."}},
  "note": "Substitutions are numbered along the chain they refer to. “Also recorded” adds a separate entry of the source.",
  "data": [
    {"molecule": "B1", "values": [
      {"measurement": "ADCC activity on A549 cells (in words)", "setting": "A549 cells [1]", "result": "less than that of AB-008873; also recorded: little binding and ADCC activity"},
      {"measurement": "binding to A549 cells (in words)", "setting": "A549 cells [2]", "result": "less than that of AB-008873; also recorded: little binding and ADCC activity"},
      {"measurement": "ADCP activity on A549 cells (in words)", "setting": "A549 cells [3]", "result": "less than that of AB-008873; also recorded: some ADCP activity"}
    ]},
    {"molecule": "B2", "values": [
      {"measurement": "ADCC potency on PC3-KILR cells (in words)", "setting": "PC3-KILR cells", "result": "highly potent"},
      {"measurement": "fold improvement in ADCC as compared to AB-010018", "setting": "PC3-KILR cells; PC3-KILR cells", "result": 10, "unit": "fold"},
      {"measurement": "EC50", "setting": "A549 cells [1]", "result": "~6", "unit": "pM"},
      {"measurement": "ADCC - dAct rel. parent, Trial 1", "setting": "A549 cells [1]", "result": 161.1, "unit": "%"},
      {"measurement": "ADCC - dAct rel. parent, Trial 2", "setting": "A549 cells [1]", "result": 106.4, "unit": "%"},
      {"measurement": "ADCC activity on A549 cells (in words)", "setting": "A549 cells [1]", "result": "improved ADCC activity"}
    ]},
    {"molecule": "B3", "values": [
      {"measurement": "EC50", "setting": "A549 cells [1]", "result": "~6", "unit": "pM"},
      {"measurement": "ADCC - dAct rel. parent, Trial 1", "setting": "A549 cells [1]", "result": 157.1, "unit": "%"},
      {"measurement": "ADCC - dAct rel. parent, Trial 2", "setting": "A549 cells [1]", "result": 106.7, "unit": "%"},
      {"measurement": "anti-tumor activity, repeat study", "setting": "PC3 tumors", "result": "anti-tumor activity"},
      {"measurement": "cytotoxic activity of ZLA conjugates (in words)", "setting": "[4]", "result": "higher potency but similar maximum cytotoxicity compared to AB-010361-ZLA and AB-010361-IgG4-ZLA"}
    ]},
    {"molecule": "B4", "values": [
      {"measurement": "epitope bin", "setting": "[5]; first bin: membrane proximal fibronectin domain, second bin: ligand binding domain", "result": "second bin"}
    ]},
    {"molecule": "B5", "values": [
      {"measurement": "Octet in tandem binning, Notes/Scoring", "setting": "[5]; label = Analyte 1, Analyte 2 8873-02, NiNTA tip, Ligand R&D ECD-06", "result": "Binding observed"},
      {"measurement": "Octet in tandem binning (blocked / binds)", "setting": "[5]; paired with 8873-2 (column; Bin #1 - FN2)", "result": "binds"},
      {"measurement": "Octet in tandem binning (blocked / binds)", "setting": "[5]; paired with 10016-01 (Bin #2 - LBD)", "result": "blocked"},
      {"measurement": "Octet in tandem binning (blocked / binds)", "setting": "[5]; paired with 10017-01 (Bin #2 - LBD)", "result": "blocked"},
      {"measurement": "Octet in tandem binning (blocked / binds)", "setting": "[5]; paired with 10018-01 (column; Bin #1 - FN2)", "result": "binds"},
      {"measurement": "Octet in tandem binning (blocked / binds)", "setting": "[5]; paired with Ephrin-A1 (Bin #2 - LBD)", "result": "blocked"}
    ]}
  ]
}
